Results on three molecules are retold here after article PMC4812828 (Nature structural & molecular biology, 2016).

B1: Psf3 (natural protein)
chain: MGYYDIDDVLADGTEFPCKFQYDIPGLGYLENNPGRPITKNTKLSLPLWLARILAIVGGDEALVDEEPVPFVELLPPDMFSTKVMNAIKTDPVALDLHSINSHFFSLAIKWIMLFSEKELANVVSELLLQRAQELNHHASSLSIDLNADSTGKNSANTNIATSTFLLKLEEMEKEIYKKSHESYKDTKRWMFKK
B2: Mcm7 (natural protein)
chain: MSAALPSIQLPVDYNNLFNEITDFLVTFKQDTLSSDATRNENEDENLDAENIEQHLLEKGPKYMAMLQKVANRELNSVIIDLDDILQYQNEKFLQGTQADDLVSAIQQNANHFTELFCRAIDNNMPLPTKEIDYKDDVLDVILNQRRLRNERMLSDRTNEIRSENLMDTTMDPPSSMNDALREVVEDETELFPPNLTRRYFLYFKPLSQNCARRYRKKAISSKPLSVRQIKGDFLGQLITVRGIITRVSDVKPAVEVIAYTCDQCGYEVFQEVNSRTFTPLSECTSEECSQNQTKGQLFMSTRASKFSAFQECKIQELSQQVPVGHIPRSLNIHVNGTLVRSLSPGDIVDVTGIFLPAPYTGFKALKAGLLTETYLEAQFVRQHKKKFASFSLTSDVEERVMELITSGDVYNRLAKSIAPEIYGNLDVKKALLLLLVGGVDKRVGDGMKIRGDINVCLMGDPGVAKSQLLKAICKISPRGVYTTGKGSSGVGLTAAVMKDPVTDEMILEGGALVLADNGICCIDEFDKMDESDRTAIHEVMEQQTISISKAGINTTLNARTSILAAANPLYGRYNPRLSPLDNINLPAALLSRFDILFLMLDIPSRDDDEKLAEHVTYVHMHNKQPDLDFTPVEPSKMREYIAYAKTKRPVMSEAVNDYVVQAYIRLRQDSKREMDSKFSFGQATPRTLLGIIRLSQALAKLRLADMVDIDDVEEALRLVRVSKESLYQETNKSKEDESPTTKIFTIIKKMLQETGKNTLSYENIVKTVRLRGFTMLQLSNCIQEYSYLNVWHLINEGNTLKFVDDGTMDTDQEDSLVSTPKLAPQTTASANVSAQDSDIDLQDA
B3: Mcm5 (natural protein)
chain: MSFDRPEIYSAPVLQGESPNDDDNTEIIKSFKNFILEFRLDSQFIYRDQLRNNILVKNYSLTVNMEHLIGYNEDIYKKLSDEPSDIIPLFETAITQVAKRISILSRAQSANNNDKDPENTSMDTDSLLLNSLPTFQLILNSNANQIPLRDLDSEHVSKIVRLSGIIISTSVLSSRATYLSIMCRNCRHTTSITINNFNSITGNTVSLPRSCLSTIESESSMANESNIGDESTKKNCGPDPYIIIHESSKFIDQQFLKLQEIPELVPVGEMPRNLTMTCDRYLTNKVIPGTRVTIVGIYSIYNSKNGAGSGRSGGGNGGSGVAIRTPYIKILGIQSDVETSSIWNSVTMFTEEEEEEFLQLSRNPKLYEILTNSIAPSIFGNEDIKKAIVCLLMGGSKKILPDGMRLRGDINVLLLGDPGTAKSQLLKFVEKVSPIAVYTSGKGSSAAGLTASVQRDPMTREFYLEGGAMVLADGGVVCIDEFDKMRDEDRVAIHEAMEQQTISIAKAGITTVLNSRTSVLAAANPIYGRYDDLKSPGDNIDFQTTILSRFDMIFIVKDDHNEERDISIANHVINIHTGNANAMQNQQEENGSEISIEKMKRYITYCRLKCAPRLSPQAAEKLSSNFVTIRKQLLINELESTERSSIPITIRQLEAIIRITESLAKLELSPIAQERHVDEAIRLFQASTMDAASQDPIGGLNQASGTSLSEIRRFEQELKRRLPIGWSTSYQTLRREFVDTHRFSQLALDKALYALEKHETIQLRHQGQNIYRSGV

Common to all, as to assay: cryo-EM structure
The test “Mcm5” has as its target B3.
Another test deals with Mcm3 (S. cerevisiae, UniProt P24279 1-971).
The next test addresses T1, Mcm4 (S. cerevisiae, UniProt P30665 1-933).
T1 sequence: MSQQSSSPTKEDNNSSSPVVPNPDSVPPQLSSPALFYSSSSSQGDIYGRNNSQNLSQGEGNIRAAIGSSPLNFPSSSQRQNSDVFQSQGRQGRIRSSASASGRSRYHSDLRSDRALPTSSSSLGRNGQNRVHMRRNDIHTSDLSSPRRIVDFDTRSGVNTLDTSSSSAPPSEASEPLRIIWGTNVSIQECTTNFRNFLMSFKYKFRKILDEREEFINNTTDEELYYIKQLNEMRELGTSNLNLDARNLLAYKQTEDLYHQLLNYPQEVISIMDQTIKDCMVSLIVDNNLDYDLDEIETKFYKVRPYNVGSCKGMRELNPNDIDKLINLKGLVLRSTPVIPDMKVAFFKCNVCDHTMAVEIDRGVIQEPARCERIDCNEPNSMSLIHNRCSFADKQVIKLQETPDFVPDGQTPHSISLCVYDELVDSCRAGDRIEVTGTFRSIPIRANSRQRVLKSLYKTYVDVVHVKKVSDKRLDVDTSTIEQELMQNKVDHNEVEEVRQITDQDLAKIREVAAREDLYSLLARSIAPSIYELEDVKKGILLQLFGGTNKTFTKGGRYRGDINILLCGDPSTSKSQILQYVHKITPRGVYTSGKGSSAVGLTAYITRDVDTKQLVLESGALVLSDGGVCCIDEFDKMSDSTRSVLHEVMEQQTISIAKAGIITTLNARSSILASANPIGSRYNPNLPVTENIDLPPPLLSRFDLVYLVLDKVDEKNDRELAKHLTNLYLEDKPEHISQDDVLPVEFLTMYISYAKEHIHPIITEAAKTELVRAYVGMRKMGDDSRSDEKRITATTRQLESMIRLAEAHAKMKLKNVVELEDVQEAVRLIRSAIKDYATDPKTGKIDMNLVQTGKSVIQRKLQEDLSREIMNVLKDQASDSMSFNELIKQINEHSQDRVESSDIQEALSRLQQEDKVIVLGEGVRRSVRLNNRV

For another test, the target named is T2, GINS (S. cerevisiae, UniProt Q03406;Q12488;P40359;Q12146).
T2 sequence 1: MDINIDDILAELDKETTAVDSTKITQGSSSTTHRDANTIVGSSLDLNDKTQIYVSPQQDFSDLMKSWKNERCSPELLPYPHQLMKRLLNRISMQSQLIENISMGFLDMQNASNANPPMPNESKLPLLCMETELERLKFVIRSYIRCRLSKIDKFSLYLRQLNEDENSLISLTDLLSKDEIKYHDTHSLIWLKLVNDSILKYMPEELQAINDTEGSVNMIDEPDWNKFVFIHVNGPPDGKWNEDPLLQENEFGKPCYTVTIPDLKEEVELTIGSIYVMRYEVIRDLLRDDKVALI
T2 sequence 2: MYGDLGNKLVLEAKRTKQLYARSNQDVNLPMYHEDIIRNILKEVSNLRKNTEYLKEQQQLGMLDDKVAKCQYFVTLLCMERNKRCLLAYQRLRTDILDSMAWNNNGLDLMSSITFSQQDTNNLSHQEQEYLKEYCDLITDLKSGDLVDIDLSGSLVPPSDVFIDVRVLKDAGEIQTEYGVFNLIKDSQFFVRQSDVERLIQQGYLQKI
T2 sequence 3: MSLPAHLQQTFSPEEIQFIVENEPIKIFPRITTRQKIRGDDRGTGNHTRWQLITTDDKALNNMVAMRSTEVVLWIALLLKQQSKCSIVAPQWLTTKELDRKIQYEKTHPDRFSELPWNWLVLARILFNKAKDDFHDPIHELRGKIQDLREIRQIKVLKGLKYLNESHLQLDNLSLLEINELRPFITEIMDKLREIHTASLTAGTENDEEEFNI
T2 sequence 4: B1 chain

A further test addresses Mcm6 (S. cerevisiae, UniProt P53091 1-1017).

Chain of Mcm6 (P53091 whole entry): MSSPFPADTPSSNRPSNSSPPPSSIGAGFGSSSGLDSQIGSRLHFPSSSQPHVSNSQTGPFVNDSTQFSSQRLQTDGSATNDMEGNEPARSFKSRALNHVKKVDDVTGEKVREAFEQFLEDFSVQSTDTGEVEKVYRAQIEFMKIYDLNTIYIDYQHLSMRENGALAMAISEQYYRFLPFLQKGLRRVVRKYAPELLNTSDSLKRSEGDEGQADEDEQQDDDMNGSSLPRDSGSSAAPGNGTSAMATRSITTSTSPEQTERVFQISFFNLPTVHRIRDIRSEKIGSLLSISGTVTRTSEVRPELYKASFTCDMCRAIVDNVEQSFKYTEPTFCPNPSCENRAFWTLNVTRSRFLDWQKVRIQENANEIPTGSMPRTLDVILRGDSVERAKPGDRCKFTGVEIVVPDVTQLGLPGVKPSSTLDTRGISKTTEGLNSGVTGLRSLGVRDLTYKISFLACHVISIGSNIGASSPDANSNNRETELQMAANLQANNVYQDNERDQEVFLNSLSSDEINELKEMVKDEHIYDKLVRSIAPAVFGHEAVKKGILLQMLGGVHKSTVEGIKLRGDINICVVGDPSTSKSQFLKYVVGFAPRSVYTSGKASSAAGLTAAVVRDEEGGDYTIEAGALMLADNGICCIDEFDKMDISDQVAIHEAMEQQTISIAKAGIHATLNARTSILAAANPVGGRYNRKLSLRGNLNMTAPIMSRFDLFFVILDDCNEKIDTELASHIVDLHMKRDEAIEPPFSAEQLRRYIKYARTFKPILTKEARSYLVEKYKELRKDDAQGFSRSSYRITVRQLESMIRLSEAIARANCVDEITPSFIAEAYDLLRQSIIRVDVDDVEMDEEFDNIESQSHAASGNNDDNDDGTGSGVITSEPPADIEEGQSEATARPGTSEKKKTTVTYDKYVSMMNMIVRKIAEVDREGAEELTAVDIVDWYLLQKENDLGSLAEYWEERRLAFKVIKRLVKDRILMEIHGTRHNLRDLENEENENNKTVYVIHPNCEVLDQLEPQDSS
Chain of Mcm3 (P24279 whole entry): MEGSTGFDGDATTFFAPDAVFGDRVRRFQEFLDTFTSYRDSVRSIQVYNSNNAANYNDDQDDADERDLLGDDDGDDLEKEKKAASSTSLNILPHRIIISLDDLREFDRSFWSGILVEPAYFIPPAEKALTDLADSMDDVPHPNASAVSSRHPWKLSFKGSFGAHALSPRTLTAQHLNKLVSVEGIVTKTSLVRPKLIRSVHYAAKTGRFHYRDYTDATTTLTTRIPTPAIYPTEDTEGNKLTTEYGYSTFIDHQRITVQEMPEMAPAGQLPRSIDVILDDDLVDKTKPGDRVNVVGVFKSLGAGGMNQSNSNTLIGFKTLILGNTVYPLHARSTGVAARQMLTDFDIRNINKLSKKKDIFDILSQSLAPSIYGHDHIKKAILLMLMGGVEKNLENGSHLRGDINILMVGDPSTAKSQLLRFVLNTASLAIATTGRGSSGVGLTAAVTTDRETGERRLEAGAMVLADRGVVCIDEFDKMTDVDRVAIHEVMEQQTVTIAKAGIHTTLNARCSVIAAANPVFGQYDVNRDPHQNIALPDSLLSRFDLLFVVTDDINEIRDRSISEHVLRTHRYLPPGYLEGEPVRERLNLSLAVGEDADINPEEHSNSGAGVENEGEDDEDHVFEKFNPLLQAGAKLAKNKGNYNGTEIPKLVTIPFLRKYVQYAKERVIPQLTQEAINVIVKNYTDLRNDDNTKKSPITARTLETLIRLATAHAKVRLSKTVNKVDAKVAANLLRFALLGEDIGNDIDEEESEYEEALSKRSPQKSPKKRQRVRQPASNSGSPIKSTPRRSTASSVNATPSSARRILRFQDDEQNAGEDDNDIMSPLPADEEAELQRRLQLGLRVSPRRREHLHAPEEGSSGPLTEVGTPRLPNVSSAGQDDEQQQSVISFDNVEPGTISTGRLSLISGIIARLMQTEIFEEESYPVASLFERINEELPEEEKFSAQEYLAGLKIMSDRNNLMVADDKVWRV

With B1, the binding result in the test with Mcm5 is listed as “binds”. As to B2, the binding result with Mcm3 and with Mcm4 was “binds” in each case.

For the molecule B3, the binding result with GINS and with Mcm6 was “binds” each time.
